According to US5744166A, “Drug delivery compositions” (Danbiosyst UK Limited, priority 1989, dated 1998):

How the values were obtained:
[1] = Effect of pH on insulin/DEAE-dextran solutions (pH and appearance); format: physicochemical
Procedure: Solutions containing DEAE-Dextran 1% w/v and Na-Insulin 167 IU/ml were prepared, separately and combined, in phosphate buffer (pH 7.3) and their pH measured using a Gallenkamp pH stick. The appearance of each solution was noted. The effect of addition of 1M sodium hydroxide solution (NaOH) or 0.1M hydrochloric acid (HCl) was determined.

[2] = Intranasal absorption of insulin solutions in anaesthetised rats: blood glucose; format: in vivo, rat (male Wistar); settings: phosphate buffer pH 7.3; for Blood Glucose Levels: 120 minutes after intranasal administration, 16.7 IU/kg insulin, level at administration about 3.5 to 4.0
Procedure: A rat in vivo experimental model, modified from that originally described by Hirai et al., Int. […] Male Wistar rats (Bantin and Kingman) of approximate weight 200-250 g, fasted overnight for about 20 hours, are anesthetized by i.p. injection of 80 mg/kg pentobarbitone sodium (60 mg/ml Sagatal™, May and Baker) with further i.p. injections of 0.05 ml when necessary to maintain a suitable level of anaesthesia. The rats are tracheotomized, the esophagus sealed and the carotid artery and jugular vein cannulated.
The DEAE-dextran used in these experiments has a molecular weight of 500,000.
This will give the same end solutions. […] An insulin solution containing the Laureth-9 enhancer system was prepared in a similar way.
A volume of 20 μl was administered.
Blood samples of 0.2 ml were collected in Fluoride oxalate tubes from the carotid artery at 10 and 5 min. prior to the insulin administration and at 5, 15, 30, 45, 60, 90, 120, 180, 240 and 300 min. post-administration. The samples were kept for a short time on crushed ice until analyzed on a Yellow Springs 23 AM glucose analyser by the glucose oxidase method.

Insulin alone: semisynthetic human Na-insulin, 167 IU/ml in phosphate buffer
pH at which solution became turbid on addition of acid ([1]; 0.1M HCl): 6.65 | pH at which solution cleared / was clear on addition of acid ([1]; 0.1M HCl): 4.14 | appearance on addition of 1.0M NaOH ([1]; 1.0M NaOH): no effect on solution appearance which remained clear | pH of solution ([1]; DEAE-dextran 1% w/v and/or Na-insulin 167 IU/ml in phosphate buffer (pH 7.3)): 7.38 | appearance of solution ([1]; as prepared in phosphate buffer, no acid or base added): clear | Blood Glucose Levels [2]: ~5.1 mmol/L | Blood Glucose Levels ([2]; listed as insulin solution alone): about 5 mmol/l | effect on blood glucose level (in words) ([2]; intranasal): does not significantly lower the blood glucose level
